Experimental data: PMC10920428, “Expression, purification, and characterization of transmembrane protein homogentisate solanesyltransferase” (Applied Microbiology and Biotechnology, 2024)

Columns and labels:
[1] = substrate: O=C(O)Cc1cc(O)ccc1O; test: cells, lysate or membranes; details: Mg2+ ([…] magnesium chloride in assay)
[2] = substrate: CC(C)=CCC/C(C)=C/CC/C(C)=C/CO[P@@](=O)(O)OP(=O)(O)O; test: cells, lysate or membranes; details: Mg2+ ([…] magnesium chloride in assay)

B1: homogentisate solanesyltransferase (CrHST) (Chlamydomonas reinhardtii) (protein)
chain: SAAVPAPLPNGGNDESFAQKLANFPNAFWKFLRPHTIRGTILGTTAVTAKVLMENPGCIDWALLPKALLGLVALLCGNGYIVGINQIYDVDIDVVNKPFLPVASGELSPALAWGLCLSLAAAGAGIVAANFGNLITSLYTFGLFLGTVYSVPPLRLKQYAVPAFMIIATVRGFLLNFGVYSATRAALGLPFEWSPAVSFITVFVTLFATVIAITKDLPDVEGDQANNISTFATRMGVRNVALLAIGLLMANYLGAIALALTYSTAFNVPLMAGAHAILAATLALRTLKLHAASYSREAVASFYRWIWNLFYAEYALLPFL
Km [1]: 48.54 ± 3.89 µM | Km [2]: 22.76 ± 1.70 µM
